# From article PMC8373069
# Key:
# [1] = target: T1, MUTYH (His tag cleaved) (mouse) (UniProt Q99P21); test: EMSA; settings: 20 nM MUTYH, 8 nM DNA, no UV-DDB; strand 1 position 21 = 8-oxoG (written G); strand 2 position 17 = tetrahydrofuran abasic analogue (written N), opposite the 8-oxoG; EMSA: 20 mM HEPES pH 7.5, 150 mM NaCl, 5 mM DTT, 0.5 mg/ml BSA, 5% glycerol, RT; 5% native gel in 1/2x TBE at 4 C
# T1 sequence: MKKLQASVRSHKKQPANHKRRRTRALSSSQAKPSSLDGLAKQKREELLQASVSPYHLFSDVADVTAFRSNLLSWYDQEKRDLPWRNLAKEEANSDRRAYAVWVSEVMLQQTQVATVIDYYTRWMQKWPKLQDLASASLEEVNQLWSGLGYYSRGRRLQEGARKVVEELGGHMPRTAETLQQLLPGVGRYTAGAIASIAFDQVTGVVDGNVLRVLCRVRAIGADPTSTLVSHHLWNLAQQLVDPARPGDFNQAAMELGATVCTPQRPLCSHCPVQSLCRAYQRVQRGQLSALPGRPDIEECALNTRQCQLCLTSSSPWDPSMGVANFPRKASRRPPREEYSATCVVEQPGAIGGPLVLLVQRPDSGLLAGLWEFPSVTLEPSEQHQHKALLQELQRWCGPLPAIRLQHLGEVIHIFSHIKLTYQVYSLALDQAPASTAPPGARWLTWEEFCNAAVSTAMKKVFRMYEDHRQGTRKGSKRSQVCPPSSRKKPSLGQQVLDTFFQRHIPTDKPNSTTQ
# His6-MUTYH (mouse) = test: single-molecule DNA tightrope; settings: one tetrahydrofuran abasic site every 2 kb, EMSA: 20 mM HEPES pH 7.5, 150 mM NaCl, 5 mM DTT, 0.5 mg/ml BSA, 5% glycerol, RT, 5% native gel in 1/2x TBE at 4 C
# [2] = target: mouse MUTYH, hexa-histidine tag cleaved with thrombin (mouse) (UniProt Q99P21)
substance,measurement,setting,value
CCGAGTCATTCCTGCAGCGAGTCCATGGGAGTCAAAT / ATTTGACTCCCATGGANTCGCTGCAGGAATGACTCGG [THF8-oxoG37],binding signal,[1],> 80 % DNA bound
THF array (tightrope DNA),binding signal (s (half-life on abasic sites)),"His6-MUTYH (mouse); with UV-DDB, which promotes MUTYH dissociation",590
same,binding signal (s (half-life on abasic sites)),His6-MUTYH (mouse); without UV-DDB,8800
UV-DDB (DDB1–DDB2 heterodimer) (from UniProt Q16531 1-1140; Q92466 1-427) (complex),"MUTYH (20 nM) excision of A opposite 8-oxoG in 50 nM 37 bp duplex, with 50 nM UV-DDB against without, up to 4 h at 37°C",[2],4 to 5 fold
